Test results as given in the MegaScale stability set (Tsuboyama et al. 2023).

B1: r16_88_TrROS_Hall (parent)
chain: EVIELKIKFKTPEQREKLKEIAKKLNAEVVEEKDGEVIIRFKTPEQAERALKEAEKLGAEVEL

Variants of: B1
Test: folding stability dG (cDNA display proteolysis); higher = more stable
Details: PBS, room temperature

Variant	folding stability dG
EVIELKIKFKTPQQREKLKEIAKKLNAEVVEEKDGEVIIRFKTPEQAERALKEAEKLGAEVEL	4.57 kcal/mol
EVIELKIKFKTPLQREKLKEIAKKLNAEVVEEKDGEVIIRFKTPEQAERALKEAEKLGAEVEL	4.88 kcal/mol
EVIELKIKFKTPGQREKLKEIAKKLNAEVVEEKDGEVIIRFKTPEQAERALKEAEKLGAEVEL	4.51 kcal/mol
EVIELKIKFKTPAQREKLKEIAKKLNAEVVEEKDGEVIIRFKTPEQAERALKEAEKLGAEVEL	4.33 kcal/mol
EVIELKIKFKTPFQREKLKEIAKKLNAEVVEEKDGEVIIRFKTPEQAERALKEAEKLGAEVEL	4.99 kcal/mol
EVIELKIKFKTPRQREKLKEIAKKLNAEVVEEKDGEVIIRFKTPEQAERALKEAEKLGAEVEL	4.58 kcal/mol
EVIELKIKFKTPPQREKLKEIAKKLNAEVVEEKDGEVIIRFKTPEQAERALKEAEKLGAEVEL	4.54 kcal/mol
EVIELKIKFKTPHQREKLKEIAKKLNAEVVEEKDGEVIIRFKTPEQAERALKEAEKLGAEVEL	4.41 kcal/mol
EVIELKIKFKTPCQREKLKEIAKKLNAEVVEEKDGEVIIRFKTPEQAERALKEAEKLGAEVEL	4.88 kcal/mol
EVIELKIKFKTPIQREKLKEIAKKLNAEVVEEKDGEVIIRFKTPEQAERALKEAEKLGAEVEL	4.32 kcal/mol
EVIELKIKFKTPKQREKLKEIAKKLNAEVVEEKDGEVIIRFKTPEQAERALKEAEKLGAEVEL	4.51 kcal/mol
EVIELKIKFKTPDQREKLKEIAKKLNAEVVEEKDGEVIIRFKTPEQAERALKEAEKLGAEVEL	4.3 kcal/mol
EVIELKIKFKTPNQREKLKEIAKKLNAEVVEEKDGEVIIRFKTPEQAERALKEAEKLGAEVEL	4.57 kcal/mol
EVIELKIKFKTPSQREKLKEIAKKLNAEVVEEKDGEVIIRFKTPEQAERALKEAEKLGAEVEL	4.66 kcal/mol
EVIELKIKFKTPMQREKLKEIAKKLNAEVVEEKDGEVIIRFKTPEQAERALKEAEKLGAEVEL	4.65 kcal/mol
EVIELKIKFCTPEQREKLKEIAKKLNAEVVEEKDGEVIIRFKTPEQAERALKEAEKLGAEVEL	4.2 kcal/mol
EVIELKIKFPTPEQREKLKEIAKKLNAEVVEEKDGEVIIRFKTPEQAERALKEAEKLGAEVEL	4.2 kcal/mol
EVIELKIKFRTPEQREKLKEIAKKLNAEVVEEKDGEVIIRFKTPEQAERALKEAEKLGAEVEL	4.47 kcal/mol
EVIELKIKFDTPEQREKLKEIAKKLNAEVVEEKDGEVIIRFKTPEQAERALKEAEKLGAEVEL	4.11 kcal/mol
EVIELKIKFQTPEQREKLKEIAKKLNAEVVEEKDGEVIIRFKTPEQAERALKEAEKLGAEVEL	4.34 kcal/mol
EVIELKIKFLTPEQREKLKEIAKKLNAEVVEEKDGEVIIRFKTPEQAERALKEAEKLGAEVEL	4.29 kcal/mol
EVIELKIKFHTPEQREKLKEIAKKLNAEVVEEKDGEVIIRFKTPEQAERALKEAEKLGAEVEL	4.28 kcal/mol

Variant	folding stability dG
EVIELKIKFSTPEQREKLKEIAKKLNAEVVEEKDGEVIIRFKTPEQAERALKEAEKLGAEVEL	4.16 kcal/mol
EVIELKIKFNTPEQREKLKEIAKKLNAEVVEEKDGEVIIRFKTPEQAERALKEAEKLGAEVEL	4.22 kcal/mol
EVIELKIKFITPEQREKLKEIAKKLNAEVVEEKDGEVIIRFKTPEQAERALKEAEKLGAEVEL	4.09 kcal/mol
EVIELKIKFYTPEQREKLKEIAKKLNAEVVEEKDGEVIIRFKTPEQAERALKEAEKLGAEVEL	4.5 kcal/mol
EVIELKIKFVTPEQREKLKEIAKKLNAEVVEEKDGEVIIRFKTPEQAERALKEAEKLGAEVEL	4.2 kcal/mol
EVIELKIKFTTPEQREKLKEIAKKLNAEVVEEKDGEVIIRFKTPEQAERALKEAEKLGAEVEL	4.38 kcal/mol
EVIELKIKFGTPEQREKLKEIAKKLNAEVVEEKDGEVIIRFKTPEQAERALKEAEKLGAEVEL	4.21 kcal/mol
EVIELKIKFETPEQREKLKEIAKKLNAEVVEEKDGEVIIRFKTPEQAERALKEAEKLGAEVEL	4 kcal/mol
EVIELKIKFATPEQREKLKEIAKKLNAEVVEEKDGEVIIRFKTPEQAERALKEAEKLGAEVEL	4.22 kcal/mol
EVIELKIKFMTPEQREKLKEIAKKLNAEVVEEKDGEVIIRFKTPEQAERALKEAEKLGAEVEL	4.19 kcal/mol
EVIELKIKFFTPEQREKLKEIAKKLNAEVVEEKDGEVIIRFKTPEQAERALKEAEKLGAEVEL	4.18 kcal/mol
EVIELKIKFWTPEQREKLKEIAKKLNAEVVEEKDGEVIIRFKTPEQAERALKEAEKLGAEVEL	4.3 kcal/mol
EVIELKIKFKKPEQREKLKEIAKKLNAEVVEEKDGEVIIRFKTPEQAERALKEAEKLGAEVEL	4.23 kcal/mol
EVIELKIKFKGPEQREKLKEIAKKLNAEVVEEKDGEVIIRFKTPEQAERALKEAEKLGAEVEL	4.26 kcal/mol
EVIELKIKFKDPEQREKLKEIAKKLNAEVVEEKDGEVIIRFKTPEQAERALKEAEKLGAEVEL	4.03 kcal/mol
EVIELKIKFKPPEQREKLKEIAKKLNAEVVEEKDGEVIIRFKTPEQAERALKEAEKLGAEVEL	3.48 kcal/mol
EVIELKIKFKWPEQREKLKEIAKKLNAEVVEEKDGEVIIRFKTPEQAERALKEAEKLGAEVEL	4.6 kcal/mol
EVIELKIKFKNPEQREKLKEIAKKLNAEVVEEKDGEVIIRFKTPEQAERALKEAEKLGAEVEL	4.26 kcal/mol
EVIELKIKFKYPEQREKLKEIAKKLNAEVVEEKDGEVIIRFKTPEQAERALKEAEKLGAEVEL	4.02 kcal/mol
EVIELKIKFKMPEQREKLKEIAKKLNAEVVEEKDGEVIIRFKTPEQAERALKEAEKLGAEVEL	4.62 kcal/mol
EVIELKIKFKFPEQREKLKEIAKKLNAEVVEEKDGEVIIRFKTPEQAERALKEAEKLGAEVEL	4.54 kcal/mol
EVIELKIKFKEPEQREKLKEIAKKLNAEVVEEKDGEVIIRFKTPEQAERALKEAEKLGAEVEL	4.14 kcal/mol

Variant	folding stability dG
EVIELKIKFKQPEQREKLKEIAKKLNAEVVEEKDGEVIIRFKTPEQAERALKEAEKLGAEVEL	4.33 kcal/mol
EVIELKIKFKCPEQREKLKEIAKKLNAEVVEEKDGEVIIRFKTPEQAERALKEAEKLGAEVEL	4.58 kcal/mol
EVIELKIKFKSPEQREKLKEIAKKLNAEVVEEKDGEVIIRFKTPEQAERALKEAEKLGAEVEL	4.44 kcal/mol
EVIELKIKFKVPEQREKLKEIAKKLNAEVVEEKDGEVIIRFKTPEQAERALKEAEKLGAEVEL	4.48 kcal/mol
EVIELKIKFKIPEQREKLKEIAKKLNAEVVEEKDGEVIIRFKTPEQAERALKEAEKLGAEVEL	4.59 kcal/mol
EVIELKIKFKHPEQREKLKEIAKKLNAEVVEEKDGEVIIRFKTPEQAERALKEAEKLGAEVEL	4.42 kcal/mol
EVIELKIKFKAPEQREKLKEIAKKLNAEVVEEKDGEVIIRFKTPEQAERALKEAEKLGAEVEL	4.39 kcal/mol
EVIELKIKFKRPEQREKLKEIAKKLNAEVVEEKDGEVIIRFKTPEQAERALKEAEKLGAEVEL	4.37 kcal/mol
EVIELKIKFKLPEQREKLKEIAKKLNAEVVEEKDGEVIIRFKTPEQAERALKEAEKLGAEVEL	4.75 kcal/mol
EVIELKIKVKTPEQREKLKEIAKKLNAEVVEEKDGEVIIRFKTPEQAERALKEAEKLGAEVEL	4.27 kcal/mol
EVIELKIKKKTPEQREKLKEIAKKLNAEVVEEKDGEVIIRFKTPEQAERALKEAEKLGAEVEL	2.75 kcal/mol
EVIELKIKTKTPEQREKLKEIAKKLNAEVVEEKDGEVIIRFKTPEQAERALKEAEKLGAEVEL	3.73 kcal/mol
EVIELKIKRKTPEQREKLKEIAKKLNAEVVEEKDGEVIIRFKTPEQAERALKEAEKLGAEVEL	2.76 kcal/mol
EVIELKIKPKTPEQREKLKEIAKKLNAEVVEEKDGEVIIRFKTPEQAERALKEAEKLGAEVEL	4.02 kcal/mol
EVIELKIKMKTPEQREKLKEIAKKLNAEVVEEKDGEVIIRFKTPEQAERALKEAEKLGAEVEL	3.98 kcal/mol
EVIELKIKQKTPEQREKLKEIAKKLNAEVVEEKDGEVIIRFKTPEQAERALKEAEKLGAEVEL	3.28 kcal/mol
EVIELKIKSKTPEQREKLKEIAKKLNAEVVEEKDGEVIIRFKTPEQAERALKEAEKLGAEVEL	3.85 kcal/mol
EVIELKIKWKTPEQREKLKEIAKKLNAEVVEEKDGEVIIRFKTPEQAERALKEAEKLGAEVEL	4.61 kcal/mol
EVIELKIKNKTPEQREKLKEIAKKLNAEVVEEKDGEVIIRFKTPEQAERALKEAEKLGAEVEL	3.54 kcal/mol
EVIELKIKYKTPEQREKLKEIAKKLNAEVVEEKDGEVIIRFKTPEQAERALKEAEKLGAEVEL	4.33 kcal/mol
EVIELKIKLKTPEQREKLKEIAKKLNAEVVEEKDGEVIIRFKTPEQAERALKEAEKLGAEVEL	4 kcal/mol
EVIELKIKIKTPEQREKLKEIAKKLNAEVVEEKDGEVIIRFKTPEQAERALKEAEKLGAEVEL	3.96 kcal/mol

Variant	folding stability dG
EVIELKIKFKTMEQREKLKEIAKKLNAEVVEEKDGEVIIRFKTPEQAERALKEAEKLGAEVEL	4.53 kcal/mol
EVIELKIKFKTAEQREKLKEIAKKLNAEVVEEKDGEVIIRFKTPEQAERALKEAEKLGAEVEL	4.39 kcal/mol
EVIELKIKFKTEEQREKLKEIAKKLNAEVVEEKDGEVIIRFKTPEQAERALKEAEKLGAEVEL	4.46 kcal/mol
EVIELKIKFKTKEQREKLKEIAKKLNAEVVEEKDGEVIIRFKTPEQAERALKEAEKLGAEVEL	4.4 kcal/mol
EVIELKIKFKTLEQREKLKEIAKKLNAEVVEEKDGEVIIRFKTPEQAERALKEAEKLGAEVEL	4.31 kcal/mol
EVIELKIKFKTQEQREKLKEIAKKLNAEVVEEKDGEVIIRFKTPEQAERALKEAEKLGAEVEL	4.3 kcal/mol
EVIELKIKFKTREQREKLKEIAKKLNAEVVEEKDGEVIIRFKTPEQAERALKEAEKLGAEVEL	4.73 kcal/mol
EVIELKIKFKTGEQREKLKEIAKKLNAEVVEEKDGEVIIRFKTPEQAERALKEAEKLGAEVEL	4.38 kcal/mol
EVIELKIKFKTWEQREKLKEIAKKLNAEVVEEKDGEVIIRFKTPEQAERALKEAEKLGAEVEL	4.88 kcal/mol
EVIELKIKFKTCEQREKLKEIAKKLNAEVVEEKDGEVIIRFKTPEQAERALKEAEKLGAEVEL	4.54 kcal/mol
EVIELKIKFKTVEQREKLKEIAKKLNAEVVEEKDGEVIIRFKTPEQAERALKEAEKLGAEVEL	4.49 kcal/mol
EVIELKIKFKTYEQREKLKEIAKKLNAEVVEEKDGEVIIRFKTPEQAERALKEAEKLGAEVEL	4.91 kcal/mol
EVIELKIKFKTIEQREKLKEIAKKLNAEVVEEKDGEVIIRFKTPEQAERALKEAEKLGAEVEL	4.47 kcal/mol
EVIELKIKFKTSEQREKLKEIAKKLNAEVVEEKDGEVIIRFKTPEQAERALKEAEKLGAEVEL	4.44 kcal/mol
EVIELKIKFKTTEQREKLKEIAKKLNAEVVEEKDGEVIIRFKTPEQAERALKEAEKLGAEVEL	4.57 kcal/mol
EVIELKIKFKTNEQREKLKEIAKKLNAEVVEEKDGEVIIRFKTPEQAERALKEAEKLGAEVEL	4.23 kcal/mol
EVIELKIKFKTFEQREKLKEIAKKLNAEVVEEKDGEVIIRFKTPEQAERALKEAEKLGAEVEL	4.85 kcal/mol
EVIELKIKFKTHEQREKLKEIAKKLNAEVVEEKDGEVIIRFKTPEQAERALKEAEKLGAEVEL	4.59 kcal/mol
EVIELKIKFKTDEQREKLKEIAKKLNAEVVEEKDGEVIIRFKTPEQAERALKEAEKLGAEVEL	4.2 kcal/mol
